Data from article doi:10.1101/285569.

Tests used:
Bruno = Bruno (UniProt O02374 1-604); test: EMSA
[1] = biological target: T1, Pumilio RNA-binding domain (UniProt P25822 1091-1426); test: EMSA
T1 sequence: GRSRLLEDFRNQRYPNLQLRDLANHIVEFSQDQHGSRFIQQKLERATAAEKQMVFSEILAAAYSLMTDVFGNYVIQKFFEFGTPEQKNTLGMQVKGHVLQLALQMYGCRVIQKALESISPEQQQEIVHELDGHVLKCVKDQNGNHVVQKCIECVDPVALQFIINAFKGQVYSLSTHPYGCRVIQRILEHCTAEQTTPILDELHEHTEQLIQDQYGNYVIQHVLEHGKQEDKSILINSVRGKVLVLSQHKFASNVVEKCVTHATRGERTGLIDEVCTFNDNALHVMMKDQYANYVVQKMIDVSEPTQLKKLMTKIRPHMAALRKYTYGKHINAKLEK

B1: Scramble RNA (ssRNA)
RNA: UAAUCAAGAUACAUAUAUGC
**Q.** Does B1 bind (Bruno)?
**A.** no binding

**Q.** Does B1 bind [1]?
**A.** no binding
